Patent US20230417748A1 (GREEN CROSS, published 2023)

Tests used:
Assay in all cases: ELISA (FIG. 7)
[1] = target: T1, RBD-S477N (Sino biologics, 40592-V08H46) (SARS-CoV-2, UniProt P0DTC2 319-541)
T1 construct: domain: RBD

[2] = target: T2, RBD-A522S (Sino biologics, 40592-V08H21) (SARS-CoV-2, UniProt P0DTC2 319-541)
T2 construct: domain: RBD

[3] = target: T3, RBD-N439K (Sino biologics, 40592-V08H14) (SARS-CoV-2, UniProt P0DTC2 319-541)
T3 construct: domain: RBD

[4] = target: Spike-D614G (Sino biologics, 40589-V08B4) (SARS-CoV-2, UniProt P0DTC2 16-1213)
[5] = target: T4, RBD-V367F (Sino biologics, 40592-V08H1) (SARS-CoV-2, UniProt P0DTC2 319-541)
T4 construct: domain: RBD

[6] = target: T5, RBD-T478I (Sino biologics, 40592-V08H30) (SARS-CoV-2, UniProt P0DTC2 319-541)
T5 construct: domain: RBD

[7] = target: T6, RBD-N501Y (Sino biologics, 40592-V08H82) (SARS-CoV-2, UniProt P0DTC2 319-541)
T6 construct: domain: RBD

[8] = target: T7, RBD-P479S (Sino biologics, 40592-V08H57) (SARS-CoV-2, UniProt P0DTC2 319-541)
T7 construct: domain: RBD

Measured: binding result

B1: M5-4 (antibody, V domains shown)
VH: EVQLVESGGGLVKPGGSLRLSCAASGFTFSSRGMSWVRQAPGKGLEWVSTISFGDIYTYYPDSVKGRFTISRDNAKNSLYLQMNSLRAEDTAVYYCARPNDGYFDYWGQGTLVTVSS
VL: DIQMTQSPSSLSASVGDRVTITCKASQSVSNDVAWYQQKPGKAPKLLIYYASNRYTGVPSRFSGSGSGTDFTLTISSLQPEDFATYYCQQSYSAPYTFGGGTKVEIKR
binds: [1] | [2] | [3] | [4] | [5] | [6] | [7] | [8]
